Measured values published in publication PMC4321713.

Molecular target: Cnidoin fragment (residues 150 to 419) with N-terminal ybbR tag and C-terminal type I dockerin-histidine tag (Hydra magnipapillata | not stated)
Assay: AFM single molecule force spectroscopy; Cnidoin-dockerin construct attached covalently by its ybbR tag to a coenzyme A glass surface; CBM A2C-Cohesin on the cantilever tip; 25 mM Tris, 72 mM NaCl, pH 7.2, 1 mM CaCl2, 10 mM DTT; pulling speeds 200 nm/s to 6,400 nm/s

rupture force: 100 pN
Substance: CBM A2C-Cohesin from Clostridium thermocellum (domain or fragment)
